Assay results taken from patent US6468985B1, “Retinoblastoma protein-interacting zinc finger proteins” (The Burnham Institute, priority 1994, dated 2002).
Each block holds one molecule with its values, some of them ahead of it.

Key:
[1] = system: SK-MEL-23 melanoma cell line; experiment: RIZ D283 allele transcript expression after demethylating agent; format: cell-based, human; conditions: 3 uM, cultured 3 to 6 days
Protocol: RNA samples from the 20 heterozygous melanoma cell lines were sequenced to determine if both alleles were transcribed in the cell or if only one allele was transcribed (ie. monoallelic expression). Sequencing was performed on DNA products produced by reverse transcription-PCR (RT-PCR) amplification using specific RIZ primers. RT-PCR amplification was performed according to the manufacturer's instructions (GeneAmp RNA PCR kit; Perkin Elmer). A 640 bp fragment encoding RIZ exons 5-7 was obtained from transcription of 1 μg of total RNA using the SSO 82 primer (SEQ ID NO: 93) and PCR amplification using the SSO 24 primer (5′[…]3′; SEQ ID NO: 106) and the SSO 82 primer (SEQ ID NO: 93). The amplified fragment was gel purified and sequenced using primer SSO 82 and a CircumVent™ Thermal Cycle DNA Sequencing kit (New England Biolabs; Beverly Mass.). The sequencing products were analyzed on a […] sequencing gel.
The SK-MEL-23 melanoma cell line was cultured for 3 to 6 days with 3 uM of the demethylating agent 5-azacytidine.

[2] = target: T1, 56 kD fragment of Rb (Homo sapiens, UniProt P06400); experiment: binding of 35S-labeled RIZ fragments to 56 kD Rb, immunoprecipitation with anti-Rb antiserum
T1 construct: p56 Rb: 56 kD fragment of Rb from a.a. position 379-928; made in house
T1 sequence (P06400 379-928): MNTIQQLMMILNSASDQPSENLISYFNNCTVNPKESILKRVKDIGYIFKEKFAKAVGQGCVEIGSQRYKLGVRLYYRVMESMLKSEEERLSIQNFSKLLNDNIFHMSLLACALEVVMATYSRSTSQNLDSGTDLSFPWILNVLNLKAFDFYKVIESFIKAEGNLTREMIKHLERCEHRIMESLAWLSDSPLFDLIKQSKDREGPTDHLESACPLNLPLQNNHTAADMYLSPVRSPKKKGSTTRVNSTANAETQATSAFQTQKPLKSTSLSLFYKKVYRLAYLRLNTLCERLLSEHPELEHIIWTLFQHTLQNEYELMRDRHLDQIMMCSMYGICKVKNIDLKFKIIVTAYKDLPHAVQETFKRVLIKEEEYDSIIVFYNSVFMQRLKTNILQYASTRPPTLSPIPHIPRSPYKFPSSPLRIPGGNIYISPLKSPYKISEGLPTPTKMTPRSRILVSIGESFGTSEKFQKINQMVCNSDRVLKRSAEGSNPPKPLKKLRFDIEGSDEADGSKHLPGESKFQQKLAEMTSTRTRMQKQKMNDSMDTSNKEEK
Protocol: To characterize the interaction between RIZ and Rb, a ^35S-labeled fragment of rat RIZ from amino acid position 245-883 (RIZ (245-883)) was produced by subcloning the 1.9 kb insert of clone 7.1 into PBKS+ (Stratagene) to yield plasmid pBKS+7.1. […] The larger size obtained by SDS-PAGE is likely due to anomalous mobility of the RIZ fragment on the gel.
A 56 kD fragment of Rb produced by bacterial expression from p56Rb plasmid, as described previously (Huang et al., supra, 1991), was tested for binding to radiolabeled RIZ (245-883). Binding was detected by immunoprecipitation with an anti-Rb antiserum and Protein A-Sepharosew™ (Huang et al., supra, 1990), which is incorporated herein by reference; and Huang et al., supra, 1991) followed by SDS-PAGE and autoradiography (see Harlow and Lane, supra, 1988). The rabbit anti-Rb antiserum was produced to purified p56Rb using previously described methods (see Harlow and Lane, supra, 1988).
The amount of binding of RIZ by Rb in the immunoprecipitation reaction was dependent on the concentration of Rb added. Full binding of ^35S-labeled RIZ (245-883) was achieved by 10 nM Rb but not 3.3 nM Rb (not shown). […]
Binding between labeled RIZ (1-575) and the glycine mutant with 33 nM Rb was evaluated by immunoprecipitation with anti-Rb antiserum followed by SDS-PAGE and autoradiography.

[3] = target: T2, full length RIZ (Rattus norvegicus, UniProt Q63755); experiment: RIZ homo-oligomer formation; format: binding
T2 construct: made in house; host or cells: in vitro translation (35S label; method not repeated for this protein)
T2 sequence (Q63755 whole entry): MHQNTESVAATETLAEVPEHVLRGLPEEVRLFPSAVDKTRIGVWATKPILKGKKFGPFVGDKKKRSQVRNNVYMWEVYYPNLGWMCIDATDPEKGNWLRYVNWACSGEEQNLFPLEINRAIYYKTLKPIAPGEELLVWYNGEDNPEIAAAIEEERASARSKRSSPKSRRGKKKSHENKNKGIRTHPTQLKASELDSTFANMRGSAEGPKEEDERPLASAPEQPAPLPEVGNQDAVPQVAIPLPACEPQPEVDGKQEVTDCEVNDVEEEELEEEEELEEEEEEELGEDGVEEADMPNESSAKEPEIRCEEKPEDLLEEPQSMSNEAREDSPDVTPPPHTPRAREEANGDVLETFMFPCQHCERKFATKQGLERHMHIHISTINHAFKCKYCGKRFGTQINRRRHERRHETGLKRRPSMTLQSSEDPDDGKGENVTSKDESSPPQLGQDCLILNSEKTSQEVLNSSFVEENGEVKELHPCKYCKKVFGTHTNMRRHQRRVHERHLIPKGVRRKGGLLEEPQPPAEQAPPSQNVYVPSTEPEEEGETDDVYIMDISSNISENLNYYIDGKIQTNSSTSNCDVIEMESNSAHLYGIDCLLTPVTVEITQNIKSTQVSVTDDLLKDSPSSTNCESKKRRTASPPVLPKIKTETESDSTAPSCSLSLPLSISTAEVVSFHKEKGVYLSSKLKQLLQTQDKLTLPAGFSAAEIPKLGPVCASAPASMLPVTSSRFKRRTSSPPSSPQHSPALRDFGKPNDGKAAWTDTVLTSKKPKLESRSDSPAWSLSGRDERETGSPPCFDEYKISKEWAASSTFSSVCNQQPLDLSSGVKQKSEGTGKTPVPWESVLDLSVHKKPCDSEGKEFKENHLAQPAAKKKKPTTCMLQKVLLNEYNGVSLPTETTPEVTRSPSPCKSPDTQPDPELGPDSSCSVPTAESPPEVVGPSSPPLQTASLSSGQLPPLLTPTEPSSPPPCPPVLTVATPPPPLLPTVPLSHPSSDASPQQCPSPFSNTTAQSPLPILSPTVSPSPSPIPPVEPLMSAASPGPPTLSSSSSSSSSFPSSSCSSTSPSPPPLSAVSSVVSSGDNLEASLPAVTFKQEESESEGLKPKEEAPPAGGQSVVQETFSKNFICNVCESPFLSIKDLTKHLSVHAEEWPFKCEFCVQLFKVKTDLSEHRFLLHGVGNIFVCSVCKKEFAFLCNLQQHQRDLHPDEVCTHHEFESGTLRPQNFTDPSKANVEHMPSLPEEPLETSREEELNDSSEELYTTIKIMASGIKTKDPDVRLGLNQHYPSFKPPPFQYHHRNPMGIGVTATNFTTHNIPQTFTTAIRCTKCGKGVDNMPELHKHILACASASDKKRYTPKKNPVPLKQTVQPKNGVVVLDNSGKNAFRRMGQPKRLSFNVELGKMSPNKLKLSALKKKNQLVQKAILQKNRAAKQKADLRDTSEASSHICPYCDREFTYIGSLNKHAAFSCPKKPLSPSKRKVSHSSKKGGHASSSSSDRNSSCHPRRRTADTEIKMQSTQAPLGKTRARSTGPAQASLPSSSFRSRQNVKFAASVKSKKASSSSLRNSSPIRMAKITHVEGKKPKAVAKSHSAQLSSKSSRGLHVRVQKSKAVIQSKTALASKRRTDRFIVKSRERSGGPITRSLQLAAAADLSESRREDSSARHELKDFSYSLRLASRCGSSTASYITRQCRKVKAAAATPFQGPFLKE

[4] = target: T3, Rb from HT1080 cell extract (Homo sapiens, UniProt P06400); experiment: GST-RIZ (215-462) glutathione-agarose pull-down of Rb from cell extract, anti-Rb immunoblot; format: binding; conditions: 4 μg GST-RIZ (215-462)
T3 construct: endogenous in cells; host or cells: HT1080 cells (lysate)
T3 sequence (P06400 1-928): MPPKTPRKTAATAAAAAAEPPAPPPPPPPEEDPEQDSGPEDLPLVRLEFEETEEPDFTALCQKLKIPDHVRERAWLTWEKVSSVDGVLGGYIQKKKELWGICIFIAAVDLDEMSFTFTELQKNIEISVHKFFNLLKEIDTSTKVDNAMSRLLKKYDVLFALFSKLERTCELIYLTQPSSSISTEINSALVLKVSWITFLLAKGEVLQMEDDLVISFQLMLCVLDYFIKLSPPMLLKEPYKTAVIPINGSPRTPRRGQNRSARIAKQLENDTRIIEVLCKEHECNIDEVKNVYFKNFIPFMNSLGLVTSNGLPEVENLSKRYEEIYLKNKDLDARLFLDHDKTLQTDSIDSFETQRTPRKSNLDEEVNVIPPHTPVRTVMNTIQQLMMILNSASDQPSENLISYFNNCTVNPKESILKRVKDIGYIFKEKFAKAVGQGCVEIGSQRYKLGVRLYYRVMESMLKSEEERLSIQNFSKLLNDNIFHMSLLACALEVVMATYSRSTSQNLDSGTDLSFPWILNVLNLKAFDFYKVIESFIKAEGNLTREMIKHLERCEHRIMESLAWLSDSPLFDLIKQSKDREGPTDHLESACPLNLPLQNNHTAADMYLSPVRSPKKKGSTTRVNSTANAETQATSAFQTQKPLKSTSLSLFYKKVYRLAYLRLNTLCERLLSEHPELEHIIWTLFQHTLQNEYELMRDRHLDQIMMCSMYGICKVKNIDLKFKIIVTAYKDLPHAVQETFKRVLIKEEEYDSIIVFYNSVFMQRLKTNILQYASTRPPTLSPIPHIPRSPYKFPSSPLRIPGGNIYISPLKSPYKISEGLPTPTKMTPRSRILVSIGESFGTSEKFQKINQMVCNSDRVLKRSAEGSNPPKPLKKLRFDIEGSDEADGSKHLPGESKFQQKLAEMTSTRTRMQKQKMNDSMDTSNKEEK
Protocol: Rat RIZ was tested for binding to Rb in HT1080 cells (ATCC #ICCL 121). The cells were grown in DMEM supplemented with […]. Cells were lysed in ELB buffer (50 mM HEPES, pH 7.5, 250 mM NaCl, 0.1% NP-40) supplemented with 5 mM EDTA, 50 mM NaF, 1 mM Na orthovanadate, 1 mM of DTT, aprotinin, leupeptin, and PMSF. The lysate was cleared of cell debris by centrifugation at 12,000 rpm for 10 min in a microfuge.
Binding between 4 μg GST-RIZ (215-462) and Rb from HT1080 cell extract was evaluated by first mixing the two, then binding GST-RIZ and any associated Rb to glutathione-agarose beads. The beads were washed in binding buffer and the bound complexes were eluted by boiling in SDS buffer and analyzed by immunoblotting with anti-Rb antiserum. Immunoblotting was performed by standard techniques (see, for example, Harlow and Lane, supra, 1988).

Molecule: Nc1ncn([C@@H]2O[C@H](CO)[C@@H](O)[C@H]2O)c(=O)n1 [5-azacytidine]
effect on reduced expression of RIZ D283 transcripts [1]: unaffected

binding to Rb in vitro (FIG. 4) [2]: specifically binds
B1: RIZ (1-575): fragment of RIZ from amino acid position 1-575 (protein)
chain: MHQNTESVAATETLAEVPEHVLRGLPEEVRLFPSAVDKTRIGVWATKPILKGKKFGPFVGDKKKRSQVRNNVYMWEVYYPNLGWMCIDATDPEKGNWLRYVNWACSGEEQNLFPLEINRAIYYKTLKPIAPGEELLVWYNGEDNPEIAAAIEEERASARSKRSSPKSRRGKKKSHENKNKGIRTHPTQLKASELDSTFANMRGSAEGPKEEDERPLASAPEQPAPLPEVGNQDAVPQVAIPLPACEPQPEVDGKQEVTDCEVNDVEEEELEEEEELEEEEEEELGEDGVEEADMPNESSAKEPEIRCEEKPEDLLEEPQSMSNEAREDSPDVTPPPHTPRAREEANGDVLETFMFPCQHCERKFATKQGLERHMHIHISTINHAFKCKYCGKRFGTQINRRRHERRHETGLKRRPSMTLQSSEDPDDGKGENVTSKDESSPPQLGQDCLILNSEKTSQEVLNSSFVEENGEVKELHPCKYCKKVFGTHTNMRRHQRRVHERHLIPKGVRRKGGLLEEPQPPAEQAPPSQNVYVPSTEPEEEGETDDVYIMDISSNISENLNYYIDGKIQTNSSTS

binding to 35S-labeled full length RIZ (homo-oligomer formation) [3]: lack of binding
B2: GST-RIZ (215-462): purified rat RIZ (a.a. position 215-462) fused C-terminal to glutathionine S-transferase (protein)
chain: PLASAPEQPAPLPEVGNQDAVPQVAIPLPACEPQPEVDGKQEVTDCEVNDVEEEELEEEEELEEEEEEELGEDGVEEADMPNESSAKEPEIRCEEKPEDLLEEPQSMSNEAREDSPDVTPPPHTPRAREEANGDVLETFMFPCQHCERKFATKQGLERHMHIHISTINHAFKCKYCGKRFGTQINRRRHERRHETGLKRRPSMTLQSSEDPDDGKGENVTSKDESSPPQLGQDCLILNSEKTSQEVLN
modifications: left off: a dimerising Fc or GST
notes: purified rat RIZ (a.a. position 215-462) fused C-terminal to glutathionine S-transferase
binding to Rb from HT1080 cell extract [4]: bound to the fastest migrating forms of Rb
